The target of experiment [1] is taxol-polymerized microtubules from bovine brain tubulin (bovine (purified from bovine brain)) (UniProt Q6B856).
The target is the same in experiment [2]. This is another data set of the same source.
Experiment [3] shares this target. Nature of the experiment: co-sedimentation; MT pelleting assay with 2 mM AMP-PNP: Kif15 19-375 (1–12 µM) mixed with taxol-polymerized MTs (5 µM), 50 mM PIPES pH 6.9, 20 mM NaCl, 2 mM MgCl2, 1 mM DTT, room temperature 10 min, 100 000g at 25°C for 20 min, SDS–PAGE of supernatants and pellets.
The target is the same in experiment [4]. Nature of the experiment: co-sedimentation; MT pelleting assay with 4 mU apyrase ('nucleotide-free' state): Kif15 19-375 (1–12 µM) mixed with taxol-polymerized MTs (5 µM), 50 mM PIPES pH 6.9, 20 mM NaCl, 2 mM MgCl2, 1 mM DTT, room temperature 10 min, 100 000g at 25°C for 20 min, SDS–PAGE of supernatants and pellets.

B1: Homo sapiens Kif15 motor domain and neck-linker region (Kif15 19-375) (domain or fragment)
chain: QPSNEGDAIKVFVRIRPPAERSGSADGEQNLCLSVLSSTSLRLHSNPEPKTFTFDHVADVDTTQESVFATVAKSIVESCMSGYNGTIFAYGQTGSGKTFTMMGPSESDNFSHNLRGVIPRSFEYLFSLIDREKEKAGAGKSFLCKCSFIEIYNEQIYDLLDSASAGLYLREHIKKGVFVVGAVEQVVTSAAEAYQVLSGGWRNRRVASTSMNRESSRSHAVFTITIESMEKSNEIVNIRTSLLNLVDLAGSERQKDTHAEGMRLKEAGNINRSLSCLGQVITALVDVGNGKQRHVCYRDSKLTFLLRDSLGGNAKTAIIANVHPGSRCFGETLSTLNFAQRAKLIKNKAVVNEDTQG
Turning to B1, in experiment [1], the K 0.5,MT of the MT-stimulated ATPase activity (MTs 0 to 10 µM, 1 mM ATP, no KCl, 25°C) is 1.1 µM. The molecule further registered an MT activation of Mant-ADP release, stopped flow, 25°C, various MT concentrations with chasing Mg2+-ATP (MTs here from pig brain tubulin; preliminary data) in experiment [2] of 1000 fold. In experiment [3], the Kd (as a rule, the constant that tells how readily two partners part at equilibrium) came out at 500 nM and the stoichiometry N (as a rule, the number of molecules, sites or subunits per partner or assembly) came out at 1.1. In experiment [4], this molecule showed a Kd of 400 nM and a stoichiometry N of 1.3.

The values are drawn from PMC3919264.
